Consider one protein from paper PMC4720418, “Experimental validation of in silico model‐predicted isocitrate dehydrogenase and phosphomannose isomerase from D ehalococcoides mccartyi” (Microbial Biotechnology, 2015).

Test in all cases: purified protein
Common to all, as to format: biochemical, Dehalococcoides mccartyi

Substrate in series [1]: NC(=O)c1ccc[n+]([C@@H]2O[C@H](COP(=O)(O)OP(=O)(O)OC[C@H]3O[C@@H](n4cnc5c(N)ncnc54)[C@H](OP(=O)(O)O)[C@@H]3O)[C@@H](O)[C@H]2O)c1
Conditions: D-isocitric acid as co-substrate (1 mM in standard assay), 10 mM MgCl2, 50 mM Tris-HCl pH 7.5 (standard assay; kinetics at selected pH), 30 °C, varied: cofactor.

Substrate in series [2]: NC(=O)c1ccc[n+]([C@@H]2O[C@H](COP(=O)(O)OP(=O)(O)OC[C@H]3O[C@@H](n4cnc5c(N)ncnc54)[C@H](O)[C@@H]3O)[C@@H](O)[C@H]2O)c1
Conditions: D-isocitric acid as co-substrate (1 mM in standard assay), 10 mM MgCl2, 50 mM Tris-HCl pH 7.5 (standard assay; kinetics at selected pH), 30 °C, varied: cofactor.

Substrate in series [3]: O=C(O)C[C@H](C(=O)O)[C@@H](O)C(=O)O
Conditions: 0.3 mM NADP+, 10 mM MgCl2, 50 mM Tris-HCl pH 7.5 (standard assay; kinetics at selected pH), 30 °C.

B1: DmIDH (KB1_0495) (Dehalococcoides mccartyi CBDB1) (protein)
chain: MYHNVTLIPGDGIGPEISEATRRVLEATGVKFNWEVVNAGADVVAEYGTPLPDMVLESIRKNKVAIKGPVTTPVGSGFRSVNVGMRKALNLYTCLRPCKTYPGVPSRYDNVDIVIVRENMEDLYAGIEFEKGSAEALRLIEFIKENKKVEIRTDSGISIKPISVFGTERIFRWAFKYAKDNNRKKVTAVHKANIMKYSDGLFLAVGRKVAEEYPEIEFEDRIVDNMTMQLVKTPTQFDILVCPNLYGDILSDLCAGLVGGLGVAPGANIGDEYALFEPTHGSAPKYKGLNKVNPMAMMLSGVLMLRYLKEEKAADKLENAIAAVIAEGKSVTYDMLSPDKQAVAVGTSQVADAIIAKMK
notes: recombinant, N-terminal 6xHis tag with TEV site (modified pET-15b), E. coli BL21(DE3), Ni-NTA and gel filtration
A word on the Km: it is the substrate concentration at which the rate is half of its maximum. Broadly, the Vmax is the top rate of the reaction or transport when substrate is in excess. As usually defined, the kcat is the number of substrate molecules converted per active site and unit of time at saturation. For orientation: kcat/Km means the turnover number divided by the Michaelis constant. For the protein B1, in series [1], the Km turned out to be 27 ± 20 µM, the maximum rate (Vmax) was determined as 20.8 µmol/min/mg, the kcat turned out to be 14.6 ± 1 s⁻¹ and the kcat/Km is 540000 ± 1000 M⁻¹ s⁻¹. In series [2], the Michaelis-Menten constant (Km) was found to be 120 ± 40 µM, the Vmax was 0.32 µmol/min/mg, the kcat came to 0.22 ± 0.03 s⁻¹ and the specificity constant (kcat/Km) was 2000 ± 1000 M⁻¹ s⁻¹. Also, in series [3], the Km stood at 110 ± 10 µM, the maximum rate (Vmax) was determined as 21.3 µmol/min/mg, the kcat amounted to 15 ± 1 s⁻¹ and the kcat/Km is 139600 ± 1000 M⁻¹ s⁻¹.
